Data set [1] deals with RABV SAD-B19 large polymerase protein (L), 6xHis-tagged (rabies virus (RABV) SAD-B19, UniProt P16289 1-2127). The data set is described as follows: negative-stain electron microscopy.
Data set [2] deals with the molecule itself. In words: negative-stain electron microscopy.

Chain of RABV SAD-B19 large polymerase protein (L), 6xHis-tagged (P16289 whole entry): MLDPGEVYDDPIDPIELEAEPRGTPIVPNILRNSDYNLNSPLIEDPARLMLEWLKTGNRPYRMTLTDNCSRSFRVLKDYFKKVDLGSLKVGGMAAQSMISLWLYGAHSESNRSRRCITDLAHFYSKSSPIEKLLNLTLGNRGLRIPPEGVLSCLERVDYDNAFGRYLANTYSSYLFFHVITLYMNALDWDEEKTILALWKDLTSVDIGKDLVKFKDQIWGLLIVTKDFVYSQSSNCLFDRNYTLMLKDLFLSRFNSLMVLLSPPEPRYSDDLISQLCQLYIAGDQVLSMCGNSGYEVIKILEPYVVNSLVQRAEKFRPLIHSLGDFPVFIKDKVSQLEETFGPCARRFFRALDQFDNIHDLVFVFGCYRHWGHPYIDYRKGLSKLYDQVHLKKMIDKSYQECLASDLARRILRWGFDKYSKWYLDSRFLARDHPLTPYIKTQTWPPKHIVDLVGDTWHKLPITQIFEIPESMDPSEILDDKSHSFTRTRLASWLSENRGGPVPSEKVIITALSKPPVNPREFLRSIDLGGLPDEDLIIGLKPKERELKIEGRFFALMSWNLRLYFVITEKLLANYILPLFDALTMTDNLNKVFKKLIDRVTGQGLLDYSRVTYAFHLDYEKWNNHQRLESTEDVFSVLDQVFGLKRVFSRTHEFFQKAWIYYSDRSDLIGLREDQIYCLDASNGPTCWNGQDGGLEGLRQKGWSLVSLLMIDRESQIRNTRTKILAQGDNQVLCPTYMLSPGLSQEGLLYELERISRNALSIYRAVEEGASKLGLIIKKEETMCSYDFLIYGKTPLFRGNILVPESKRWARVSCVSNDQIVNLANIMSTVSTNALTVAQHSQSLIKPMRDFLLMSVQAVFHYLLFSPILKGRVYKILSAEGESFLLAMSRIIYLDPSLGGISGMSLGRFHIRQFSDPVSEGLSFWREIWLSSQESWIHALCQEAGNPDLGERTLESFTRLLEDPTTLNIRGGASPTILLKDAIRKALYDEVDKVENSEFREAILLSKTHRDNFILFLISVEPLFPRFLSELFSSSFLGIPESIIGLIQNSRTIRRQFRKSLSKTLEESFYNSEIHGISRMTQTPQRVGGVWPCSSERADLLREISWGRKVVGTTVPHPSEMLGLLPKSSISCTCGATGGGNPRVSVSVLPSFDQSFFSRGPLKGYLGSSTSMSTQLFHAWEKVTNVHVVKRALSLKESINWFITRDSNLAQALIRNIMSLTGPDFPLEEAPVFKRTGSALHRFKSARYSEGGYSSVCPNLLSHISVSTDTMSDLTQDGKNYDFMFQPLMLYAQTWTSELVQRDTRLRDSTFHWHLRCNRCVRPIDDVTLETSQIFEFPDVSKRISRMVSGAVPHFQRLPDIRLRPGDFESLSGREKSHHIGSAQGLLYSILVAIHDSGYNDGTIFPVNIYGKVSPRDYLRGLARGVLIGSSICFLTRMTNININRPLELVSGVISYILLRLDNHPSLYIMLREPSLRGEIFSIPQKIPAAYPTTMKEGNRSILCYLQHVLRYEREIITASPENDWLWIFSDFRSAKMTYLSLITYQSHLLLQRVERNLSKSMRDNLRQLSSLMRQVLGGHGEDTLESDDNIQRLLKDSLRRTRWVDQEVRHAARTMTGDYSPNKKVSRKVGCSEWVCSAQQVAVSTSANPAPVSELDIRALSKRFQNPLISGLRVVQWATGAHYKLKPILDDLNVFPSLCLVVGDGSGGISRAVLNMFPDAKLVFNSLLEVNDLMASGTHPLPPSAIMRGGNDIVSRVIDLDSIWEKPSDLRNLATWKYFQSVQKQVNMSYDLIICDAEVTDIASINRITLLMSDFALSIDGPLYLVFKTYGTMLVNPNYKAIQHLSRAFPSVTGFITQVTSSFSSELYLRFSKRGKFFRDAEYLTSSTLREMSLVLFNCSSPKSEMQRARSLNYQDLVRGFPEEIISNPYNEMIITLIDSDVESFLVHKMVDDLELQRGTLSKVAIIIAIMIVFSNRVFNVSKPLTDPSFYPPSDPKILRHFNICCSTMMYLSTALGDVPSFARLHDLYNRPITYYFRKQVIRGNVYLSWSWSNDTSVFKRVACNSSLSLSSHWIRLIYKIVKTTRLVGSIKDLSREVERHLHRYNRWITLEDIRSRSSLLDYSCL

B1: RABV SAD-B19 full-length P (PFL) with C-terminal StrepII tag (natural protein)
chain: MSKIFVNPSAIRAGLADLEMAEETVDLINRNIEDNQAHLQGEPIEVDNLPEDMGRLHLDDGKSPNHGEIAKVGEGKYREDFQMDEGEDPSFLFQSYLENVGVQIVRQMRSGERFLKIWSQTVEEIISYVAVNFPNPPGKSSEDKSTQTTGRELKKETTPTPSQRESQSSKARMAAQIASGPPALEWSATNEEDDLSVEAEIAHQIAESFSKKYKFPSRSSGILLYNFEQLKMNLDDIVKEAKNVPGVTRLAHDGSKLPLRCVLGWVALANSKKFQLLVESDKLSKIMQDDLNRYTSC
Regarding B1, in data set [1], the binding result was “binds”. Moreover, the “stoichiometry N” value in data set [2] came out at 2.

The stoichiometry N is a count of units in the complex or per binding partner.

(Values after publication PMC6995008 (Proceedings of the National Academy of Sciences of the …, 2020).)
